Numbering of substitutions follows the chain as printed.
What was measured:
cSNK:BSA conjugate [1] = target: T1, cSNK:BSA conjugate (bovine, head-to-tail cyclized; conjugated to BSA carrier); experiment: BLI (Octet), compared to hu5E3
T1 construct: also called BSA-cSNK

cSNK:BSA conjugate [2] = target: T1, cSNK:BSA conjugate; experiment: BLI (Octet), 1:1 model, BSA-cSNK
Method: Biolayer interferometry (Octet Red92, ForteBio) was used to qualitatively/quantitatively assess the interactions between humanized 5E3 and Δ5E3 mAbs to the cSNK:BSA conjugate. […] MAbs were loaded onto sensors and then washed in PBST. Each sensor was associated with one of several cSNK:BSA standards (100 nM to 0 nM) and then washed in PBST. Data was processed statistically using ForteBio Data Analysis software to determine the strength of antigen-antibody binding (KD). For each mAb analyzed, a 1:1 model provided the “best fit”.

cSNK:BSA conjugate [3] = target: T1, cSNK:BSA conjugate; experiment: BLI 2:1 fit, column KD; 25 nM row
Method: (§1) Biolayer interferometry (Octet […], ForteBio) was used to qualitatively/quantitatively assess the interactions between humanized versions of 5E3 and cSNK:BSA conjugate. […] MAbs were loaded onto sensors and then washed in PBST. Each sensor was associated with one of several cSNK:BSA standards (100 nM to 0 nM) and then washed in PBST. Data was processed statistically using ForteBio Data Analysis software to determine the strength of antigen-antibody binding (KD). For each mAb analyzed, a 2:1 model provided the “best fit”.

cSNK:BSA conjugate [4] = target: T1, cSNK:BSA conjugate; experiment: BLI 2:1 fit, column KD; 50 nM row
Method: as §1

cSNK:BSA conjugate [5] = target: T1, cSNK:BSA conjugate; experiment: BLI 2:1 fit, column KD2; 25 nM row
Method: as §1

cSNK:BSA conjugate [6] = target: T1, cSNK:BSA conjugate; experiment: BLI 2:1 fit, column KD2; 50 nM row
Method: as §1

cSNK:BSA conjugate [7] = target: T1, cSNK:BSA conjugate; experiment: BLI 2:1 fit, column kon; 25 nM row
Method: as §1

cSNK:BSA conjugate [8] = target: T1, cSNK:BSA conjugate; experiment: BLI 2:1 fit, column kon; 50 nM row
Method: as §1

cSNK:BSA conjugate [9] = target: T1, cSNK:BSA conjugate; experiment: BLI 2:1 fit, column KD2; 100 nM row
Method: as §1

cSNK:BSA conjugate [10] = target: T1, cSNK:BSA conjugate; experiment: BLI 2:1 fit, column KD; 12.5 nM row
Method: as §1

cSNK:BSA conjugate [11] = target: T1, cSNK:BSA conjugate; experiment: BLI 2:1 fit, column KD; 6.25 nM row
Method: as §1

cSNK:BSA conjugate [12] = target: T1, cSNK:BSA conjugate; experiment: BLI 2:1 fit, column kdis; 25 nM row
Method: as §1

cSNK:BSA conjugate [13] = target: T1, cSNK:BSA conjugate; experiment: BLI 2:1 fit, column kdis; 50 nM row
Method: as §1

cSNK:BSA conjugate [14] = target: T1, cSNK:BSA conjugate; experiment: BLI 2:1 fit, column kon2; 25 nM row
Method: as §1

cSNK:BSA conjugate [15] = target: T1, cSNK:BSA conjugate; experiment: BLI 2:1 fit, column kon2; 50 nM row
Method: as §1

cSNK:BSA conjugate [16] = target: T1, cSNK:BSA conjugate; experiment: BLI 2:1 fit, column kon; 100 nM row
Method: as §1

cSNK:BSA conjugate [17] = target: T1, cSNK:BSA conjugate; experiment: BLI 2:1 fit, column KD2; 12.5 nM row
Method: as §1

cSNK:BSA conjugate [18] = target: T1, cSNK:BSA conjugate; experiment: BLI 2:1 fit, column KD2; 6.25 nM row
Method: as §1

cSNK:BSA conjugate [19] = target: T1, cSNK:BSA conjugate; experiment: BLI 2:1 fit, column kdis2; 25 nM row
Method: as §1

cSNK:BSA conjugate [20] = target: T1, cSNK:BSA conjugate; experiment: BLI 2:1 fit, column kdis2; 50 nM row
Method: as §1

cSNK:BSA conjugate [21] = target: T1, cSNK:BSA conjugate; experiment: BLI 2:1 fit, column kdis; 100 nM row
Method: as §1

cSNK:BSA conjugate [22] = target: T1, cSNK:BSA conjugate; experiment: BLI 2:1 fit, column kon2; 100 nM row
Method: as §1

cSNK:BSA conjugate [23] = target: T1, cSNK:BSA conjugate; experiment: BLI 2:1 fit, column kon; 12.5 nM row
Method: as §1

cSNK:BSA conjugate [24] = target: T1, cSNK:BSA conjugate; experiment: BLI 2:1 fit, column kon; 6.25 nM row
Method: as §1

cSNK:BSA conjugate [25] = target: T1, cSNK:BSA conjugate; experiment: BLI 2:1 fit, column kdis2; 100 nM row
Method: as §1

cSNK:BSA conjugate [26] = target: T1, cSNK:BSA conjugate; experiment: BLI 2:1 fit, column kdis; 12.5 nM row
Method: as §1

cSNK:BSA conjugate [27] = target: T1, cSNK:BSA conjugate; experiment: BLI 2:1 fit, column kdis; 6.25 nM row
Method: as §1

cSNK:BSA conjugate [28] = target: T1, cSNK:BSA conjugate; experiment: BLI 2:1 fit, column kon2; 12.5 nM row
Method: as §1

cSNK:BSA conjugate [29] = target: T1, cSNK:BSA conjugate; experiment: BLI 2:1 fit, column kon2; 6.25 nM row
Method: as §1

cSNK:BSA conjugate [30] = target: T1, cSNK:BSA conjugate; experiment: BLI 2:1 fit, column kdis2; 12.5 nM row
Method: as §1

cSNK:BSA conjugate [31] = target: T1, cSNK:BSA conjugate; experiment: BLI 2:1 fit, column kdis2; 6.25 nM row
Method: as §1

cSNK:BSA conjugate [32] = target: T1, cSNK:BSA conjugate; experiment: BLI (Octet RED96), 2:1 kinetics, KD1, summary table
Method: as §1
(§2) Table 7 summarizes the affinity constants of humanized 5E3 IgG1, IgG2 and IgG4 constructs. The KD ranges were determined using 2:1 kinetics of binding of analyte (BSA-cSNK) in solution to two different binding sites on the surface (immobilized bivalent, monospecific 5E3) in comparison to murine 5E3 using biolayer interferometry (Octet RED96).

cSNK:BSA conjugate [33] = target: T1, cSNK:BSA conjugate; experiment: BLI (Octet RED96), 2:1 kinetics, KD2, summary table
Method: as §1, §2

cSNK:BSA conjugate [34] = target: T1, cSNK:BSA conjugate; experiment: BLI 2:1 fit, column KD; 100 nM row; 100 nM row, column KD (site with kon 4.16E+06, kdis 3.38E-02)
Method: as §1

T1 sequence (P02769 25-607 limits assumed): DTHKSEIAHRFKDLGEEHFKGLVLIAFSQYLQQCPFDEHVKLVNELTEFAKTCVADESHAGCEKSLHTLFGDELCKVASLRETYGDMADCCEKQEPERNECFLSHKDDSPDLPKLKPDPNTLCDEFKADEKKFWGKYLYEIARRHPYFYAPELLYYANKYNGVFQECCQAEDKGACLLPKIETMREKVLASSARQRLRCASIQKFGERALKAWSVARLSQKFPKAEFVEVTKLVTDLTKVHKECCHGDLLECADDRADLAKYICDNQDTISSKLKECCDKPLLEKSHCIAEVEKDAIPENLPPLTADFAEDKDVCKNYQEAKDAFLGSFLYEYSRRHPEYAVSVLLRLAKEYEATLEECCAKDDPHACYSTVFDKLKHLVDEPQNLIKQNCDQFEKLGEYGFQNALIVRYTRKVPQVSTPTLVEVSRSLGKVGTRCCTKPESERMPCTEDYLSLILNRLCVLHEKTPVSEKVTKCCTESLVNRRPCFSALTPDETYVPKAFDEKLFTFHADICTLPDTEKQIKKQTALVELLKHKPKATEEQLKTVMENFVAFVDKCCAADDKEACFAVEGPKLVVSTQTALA

B1: 5E3KCDR3-Y91F (antibody, IgG1, V domains shown)
VH: QVQLQQSGPEVKKPGASVKISCKASGYIFTSYYIQWVIHAPGQGLEWIGWIYPGNVNTKYNEKFKGKATLTADKSSSTAYMELSSLTSEDTAVYFCARMDYEAHYWGQGTTVTVSS
VL: DIQMTQSPSSLSASVGDRVTITCRASQEISGYLTWLQQKPEGAIKRLIYAASTLDSGVPKRFSGSRSGSDYSLTISSLQPEDFATYNCLQFANYPRTFGGGTKLEIK
notes: hu5E3 IgG1 vector mutant
Question: Does B1 bind (cSNK:BSA conjugate [1])?
Answer: no binding (tested: 100 nM)

B2: HuΔ5E3-IgG1 (IQR) (antibody, V domains shown)
VH: B1 VH with H39Q, A40R
VL: B1 VL with F91Y
notes: human IgG1; also called huΔ5E3 IQR Mutation
Question: Which Kd (cSNK:BSA conjugate [2]) does the source give for B2 here?
Answer: 1.26 nM

B3: HuΔ5E3-IgG1 (KQR) (antibody, V domains shown)
VH: B1 VH with I38K, H39Q, A40R
VL: B1 VL with F91Y
notes: human IgG1; also called hu5E3 IgG1 KQR; huΔ5E3 KQR Mutation
Question: B3 was tested. Which Kd (cSNK:BSA conjugate [2]) did it give?
Answer: 1.88 nM

B4: HuΔ5E3-IgG1 (KQA) (antibody, V domains shown)
VH: B1 VH with I38K, H39Q
VL: B1 VL with F91Y
notes: human IgG1; also called huΔ5E3 KQA Mutation
Question: Which Kd (cSNK:BSA conjugate [2]) does the source give for B4 here?
Answer: 1.28 nM

B5: HuΔ5E3-IgG4 (KQR) (antibody, V domains shown)
VH: B1 VH with I38K, H39Q, A40R
VL: B1 VL with F91Y
notes: KQR framework 2 variant of hu5E3 on human IgG4
Question: For B5, which Kd (cSNK:BSA conjugate [2]) is on record?
Answer: 1.04 nM

B6: HuΔ5E3-IgG2 (KQR) (antibody, V domains shown)
VH: B1 VH with I38K, H39Q, A40R
VL: B1 VL with F91Y
notes: KQR framework 2 variant of hu5E3 on human IgG2
Question: How did the Kd (cSNK:BSA conjugate [2]) turn out when B6 was run?
Answer: 0.226 nM

B7: HuΔ5E3-IgG1 (KHA) (antibody, V domains shown)
VH: B1 VH with I38K
VL: B1 VL with F91Y
notes: human IgG1; also called huΔ5E3 KHA Mutation
Question: For B7, which Kd (cSNK:BSA conjugate [2]) is on record?
Answer: 1.52 nM

B8: 5E3KCDR3-Y94F (antibody, IgG1, V domains shown)
VH: B1 VH
VL: B1 VL with F91Y, Y94F
notes: hu5E3 IgG1 vector mutant
Question: Does B8 bind (cSNK:BSA conjugate [1])?
Answer: no binding (tested: 100 nM)

B9: HuΔ5E3-IgG1 (IHR) (antibody, V domains shown)
VH: B1 VH with A40R
VL: B1 VL with F91Y
notes: human IgG1; also called huΔ5E3 IHR Mutation
Question: Which Kd (cSNK:BSA conjugate [2]) does the source give for B9 here?
Answer: 1.43 nM

B10: rehu5E3-IgG2 (antibody, V domains shown)
VH: B1 VH with K12V, T87R, T91S, T111L
VL: B1 VL with V15L, I21L, G42K, S72T, T85D, F91Y
notes: human IgG2/kappa
Question: For B10, which Kd (cSNK:BSA conjugate [3]) is on record?
Answer: 1.28 nM

Question: What about the Kd (cSNK:BSA conjugate [4]) of the same binder?
Answer: 8.14 nM

Question: And the Kd (cSNK:BSA conjugate [5])?
Answer: 8.14 nM

Question: And the Kd (cSNK:BSA conjugate [6])?
Answer: 1.28 nM

Question: And the kon (cSNK:BSA conjugate [7])?
Answer: 698000 M⁻¹ s⁻¹

Question: What about the kon (cSNK:BSA conjugate [8]) of the same binder?
Answer: 4.16e+06 M⁻¹ s⁻¹

Question: And the Kd (cSNK:BSA conjugate [9])?
Answer: 1.28 nM

Question: What about the Kd (cSNK:BSA conjugate [10]) of the same binder?
Answer: 1.28 nM

Question: What about the Kd (cSNK:BSA conjugate [11]) of the same binder?
Answer: 1.28 nM

Question: And the koff (cSNK:BSA conjugate [12])?
Answer: 0.00089 s⁻¹

Question: What about the koff (cSNK:BSA conjugate [13]) of the same binder?
Answer: 0.0338 s⁻¹

Question: What about the kon (cSNK:BSA conjugate [14]) of the same binder?
Answer: 4.16e+06 M⁻¹ s⁻¹

Question: And the kon (cSNK:BSA conjugate [15])?
Answer: 698000 M⁻¹ s⁻¹

Question: What about the kon (cSNK:BSA conjugate [16]) of the same binder?
Answer: 4.16e+06 M⁻¹ s⁻¹

Question: What about the Kd (cSNK:BSA conjugate [17]) of the same binder?
Answer: 8.14 nM

Question: What about the Kd (cSNK:BSA conjugate [18]) of the same binder?
Answer: 8.14 nM

Question: What about the koff (cSNK:BSA conjugate [19]) of the same binder?
Answer: 0.0338 s⁻¹

Question: What about the koff (cSNK:BSA conjugate [20]) of the same binder?
Answer: 0.00089 s⁻¹

Question: And the koff (cSNK:BSA conjugate [21])?
Answer: 0.0338 s⁻¹

Question: What about the kon (cSNK:BSA conjugate [22]) of the same binder?
Answer: 698000 M⁻¹ s⁻¹

Question: And the kon (cSNK:BSA conjugate [23])?
Answer: 698000 M⁻¹ s⁻¹

Question: What about the kon (cSNK:BSA conjugate [24]) of the same binder?
Answer: 698000 M⁻¹ s⁻¹

Question: And the koff (cSNK:BSA conjugate [25])?
Answer: 0.00089 s⁻¹

Question: What about the koff (cSNK:BSA conjugate [26]) of the same binder?
Answer: 0.00089 s⁻¹

Question: And the koff (cSNK:BSA conjugate [27])?
Answer: 0.00089 s⁻¹

Question: And the kon (cSNK:BSA conjugate [28])?
Answer: 4.16e+06 M⁻¹ s⁻¹

Question: What about the kon (cSNK:BSA conjugate [29]) of the same binder?
Answer: 4.16e+06 M⁻¹ s⁻¹

Question: And the koff (cSNK:BSA conjugate [30])?
Answer: 0.0338 s⁻¹

Question: And the koff (cSNK:BSA conjugate [31])?
Answer: 0.0338 s⁻¹

Question: And the Kd (cSNK:BSA conjugate [32])?
Answer: 8.14 nM

Question: And the Kd (cSNK:BSA conjugate [33])?
Answer: 1.28 nM

Question: What about the Kd (cSNK:BSA conjugate [34]) of the same binder?
Answer: 8.14 nM

— patent US20170008955A1 (CNJ, published 2017)
